Laboratory results as given in patent US20200262877A1, “ION CHANNEL-BINDING PEPTIDES AND METHODS OF USE THEREOF” (priority 2017, published 2020).

Legend:
[1] = molecular target: T1, NR2A (Homo sapiens, UniProt Q12879); assay: Ion channel panel (IonWorks Barracuda): NR2A; assay type: cell-based; conditions: 100% = no change, <100% = inhibition
T1 construct: host or cells: HEK293 or CHO
Summary of the method: (§1)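 Transfected HEK293 or CHO cells were exposed for at least 5 min to peptides at 200 nM and 20 μM final, tested in duplicate, in HEPES-buffered physiological saline. Activation was taken as peptide-plus-agonist current over control current ×100, and inhibition as 1 minus that ratio ×100. Each channel's control was its own reference compound.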

[2] = molecular target: T2, α4β2 (Homo sapiens, UniProt P17787+P43681); assay: Ion channel panel (IonWorks Barracuda): α4β2; assay type: cell-based; conditions: 100% = no change, <100% = inhibition
T2 construct: host or cells: HEK293 or CHO
Summary of the method: as §1

[3] = molecular target: T3, 5HT3a (Homo sapiens, UniProt P46098); assay: Ion channel panel (IonWorks Barracuda): 5HT3a; assay type: cell-based
T3 construct: host or cells: HEK293 or CHO
T3 sequence (P46098 whole entry, looked up): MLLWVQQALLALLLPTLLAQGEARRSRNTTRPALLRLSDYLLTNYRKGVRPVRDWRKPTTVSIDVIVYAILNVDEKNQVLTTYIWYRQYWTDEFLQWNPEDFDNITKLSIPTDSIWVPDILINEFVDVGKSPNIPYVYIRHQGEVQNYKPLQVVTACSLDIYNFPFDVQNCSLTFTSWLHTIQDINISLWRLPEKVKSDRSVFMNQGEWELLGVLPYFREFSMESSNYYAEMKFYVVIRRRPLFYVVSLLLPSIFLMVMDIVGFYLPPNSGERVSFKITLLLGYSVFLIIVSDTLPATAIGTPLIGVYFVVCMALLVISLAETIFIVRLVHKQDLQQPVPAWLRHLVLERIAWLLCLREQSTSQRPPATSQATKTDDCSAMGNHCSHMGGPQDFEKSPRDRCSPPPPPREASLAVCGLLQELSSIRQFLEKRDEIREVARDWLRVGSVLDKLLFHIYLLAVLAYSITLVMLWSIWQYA
Summary of the method: as §1

[4] = test system: GABA; assay: Ion channel panel (IonWorks Barracuda): GABA; assay type: cell-based; conditions: 100% = no change, <100% = inhibition
Summary of the method: as §1

[5] = molecular target: hERG (Homo sapiens, UniProt Q12809); assay: in vitro; conditions: 100% = no change, <100% = inhibition
Summary of the method: as §1

[6] = molecular target: Nav1.5 (Homo sapiens, UniProt Q14524); assay: in vitro; conditions: 100% = no change; for Activity of Nav1.5 with peptide, expressed as a percentage of the reference compound: peptide at 0.2 μM; for Activity of Nav1.5 with peptide (percentage of the reference compound): peptide at 20 μM
Chain of Nav1.5 (Q14524 whole entry): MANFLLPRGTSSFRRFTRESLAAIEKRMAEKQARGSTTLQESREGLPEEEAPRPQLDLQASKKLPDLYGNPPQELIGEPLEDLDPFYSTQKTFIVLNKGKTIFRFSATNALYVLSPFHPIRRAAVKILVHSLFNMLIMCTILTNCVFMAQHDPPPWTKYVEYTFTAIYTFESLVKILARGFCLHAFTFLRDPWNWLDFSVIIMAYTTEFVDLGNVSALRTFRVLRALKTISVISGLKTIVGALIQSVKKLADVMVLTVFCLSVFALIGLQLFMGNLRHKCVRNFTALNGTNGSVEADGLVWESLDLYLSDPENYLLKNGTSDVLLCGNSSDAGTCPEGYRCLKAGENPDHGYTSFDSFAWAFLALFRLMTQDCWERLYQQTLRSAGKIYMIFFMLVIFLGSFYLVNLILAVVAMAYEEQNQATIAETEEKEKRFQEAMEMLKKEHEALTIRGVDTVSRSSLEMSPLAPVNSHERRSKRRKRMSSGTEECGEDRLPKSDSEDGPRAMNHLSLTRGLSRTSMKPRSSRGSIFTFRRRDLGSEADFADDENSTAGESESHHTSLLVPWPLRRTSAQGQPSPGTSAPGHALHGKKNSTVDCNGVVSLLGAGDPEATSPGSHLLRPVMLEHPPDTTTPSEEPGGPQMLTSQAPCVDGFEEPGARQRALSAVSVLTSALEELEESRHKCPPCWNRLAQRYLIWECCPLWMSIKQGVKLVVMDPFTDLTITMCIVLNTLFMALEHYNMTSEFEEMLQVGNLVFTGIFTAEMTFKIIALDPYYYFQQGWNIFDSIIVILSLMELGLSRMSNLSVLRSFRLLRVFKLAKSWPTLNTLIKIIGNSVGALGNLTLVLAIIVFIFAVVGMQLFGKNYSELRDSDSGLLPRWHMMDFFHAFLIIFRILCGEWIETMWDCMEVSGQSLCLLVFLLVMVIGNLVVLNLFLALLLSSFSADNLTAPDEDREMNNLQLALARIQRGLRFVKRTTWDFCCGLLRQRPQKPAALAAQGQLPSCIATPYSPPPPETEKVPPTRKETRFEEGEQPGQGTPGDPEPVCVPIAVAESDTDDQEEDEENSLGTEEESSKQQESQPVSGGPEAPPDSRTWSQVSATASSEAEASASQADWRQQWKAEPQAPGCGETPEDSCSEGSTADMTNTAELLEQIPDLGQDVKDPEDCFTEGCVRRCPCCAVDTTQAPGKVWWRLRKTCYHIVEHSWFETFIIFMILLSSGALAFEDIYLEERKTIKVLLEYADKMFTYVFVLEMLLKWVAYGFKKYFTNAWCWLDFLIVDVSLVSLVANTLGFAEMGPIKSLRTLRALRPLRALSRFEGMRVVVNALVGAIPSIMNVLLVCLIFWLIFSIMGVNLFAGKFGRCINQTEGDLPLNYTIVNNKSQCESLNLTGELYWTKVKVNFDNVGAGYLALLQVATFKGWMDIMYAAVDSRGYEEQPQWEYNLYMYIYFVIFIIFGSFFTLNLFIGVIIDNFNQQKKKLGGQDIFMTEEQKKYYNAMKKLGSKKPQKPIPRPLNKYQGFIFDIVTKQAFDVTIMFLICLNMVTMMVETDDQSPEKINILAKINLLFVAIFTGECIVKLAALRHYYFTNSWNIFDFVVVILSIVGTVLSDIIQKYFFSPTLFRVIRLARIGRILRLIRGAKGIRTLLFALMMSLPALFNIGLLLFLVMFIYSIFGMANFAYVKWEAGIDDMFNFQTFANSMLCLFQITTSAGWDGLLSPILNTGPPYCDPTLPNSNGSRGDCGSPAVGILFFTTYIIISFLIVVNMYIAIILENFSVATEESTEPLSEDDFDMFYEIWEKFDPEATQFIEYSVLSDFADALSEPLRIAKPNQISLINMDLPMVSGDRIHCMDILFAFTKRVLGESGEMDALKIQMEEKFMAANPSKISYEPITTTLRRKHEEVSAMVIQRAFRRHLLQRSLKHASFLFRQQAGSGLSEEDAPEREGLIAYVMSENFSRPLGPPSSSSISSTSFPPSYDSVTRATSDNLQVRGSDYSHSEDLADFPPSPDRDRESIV
Summary of the method: as §1

[7] = molecular target: T4, Kir2.1 (Homo sapiens, UniProt P63252); assay: Ion channel panel (IonWorks Barracuda): Kir2.1; assay type: cell-based; conditions: 100% = no change, <100% = inhibition
T4 construct: host or cells: HEK293 or CHO
Summary of the method: as §1

[8] = molecular target: T5, Kv1.3 (Homo sapiens, UniProt P22001); assay: cell-based; assay type: cell-based; conditions: 100% = no change, <100% = inhibition
T5 construct: host or cells: HEK293 or CHO
Summary of the method: as §1

[9] = molecular target: T6, Kv1.1 (Homo sapiens, UniProt Q09470); assay: cell-based; assay type: cell-based; conditions: 100% = no change, <100% = inhibition
T6 construct: host or cells: HEK293 or CHO
Summary of the method: as §1

[10] = molecular target: T7, Kv1.2 (Homo sapiens, UniProt P16389); assay: cell-based; assay type: cell-based; conditions: 100% = no change, <100% = inhibition
T7 construct: host or cells: HEK293 or CHO
Summary of the method: as §1

[11] = molecular target: T8, TRPA1 (Homo sapiens, UniProt O75762); assay: Ion channel panel (IonWorks Barracuda): TRPA1; assay type: cell-based; conditions: 100% = no change, <100% = inhibition
T8 construct: host or cells: HEK293 or CHO
Summary of the method: as §1

[12] = molecular target: T9, α3β4 (Homo sapiens, UniProt P30926+P32297); assay: Ion channel panel (IonWorks Barracuda): α3β4; assay type: cell-based; conditions: 100% = no change, <100% = inhibition
T9 construct: host or cells: HEK293 or CHO
Summary of the method: as §1

[13] = molecular target: T10, TRPV1 (Homo sapiens, UniProt Q8NER1); assay: Ion channel panel (IonWorks Barracuda): TRPV1; assay type: cell-based; conditions: 100% = no change, <100% = inhibition
T10 construct: host or cells: HEK293 or CHO
Summary of the method: as §1

[14] = molecular target: T11, Kv2.1 (Homo sapiens, UniProt Q14721); assay: cell-based; conditions: 100% = no change, <100% = inhibition
T11 construct: host or cells: HEK293 or CHO
T11 sequence (Q14721 whole entry): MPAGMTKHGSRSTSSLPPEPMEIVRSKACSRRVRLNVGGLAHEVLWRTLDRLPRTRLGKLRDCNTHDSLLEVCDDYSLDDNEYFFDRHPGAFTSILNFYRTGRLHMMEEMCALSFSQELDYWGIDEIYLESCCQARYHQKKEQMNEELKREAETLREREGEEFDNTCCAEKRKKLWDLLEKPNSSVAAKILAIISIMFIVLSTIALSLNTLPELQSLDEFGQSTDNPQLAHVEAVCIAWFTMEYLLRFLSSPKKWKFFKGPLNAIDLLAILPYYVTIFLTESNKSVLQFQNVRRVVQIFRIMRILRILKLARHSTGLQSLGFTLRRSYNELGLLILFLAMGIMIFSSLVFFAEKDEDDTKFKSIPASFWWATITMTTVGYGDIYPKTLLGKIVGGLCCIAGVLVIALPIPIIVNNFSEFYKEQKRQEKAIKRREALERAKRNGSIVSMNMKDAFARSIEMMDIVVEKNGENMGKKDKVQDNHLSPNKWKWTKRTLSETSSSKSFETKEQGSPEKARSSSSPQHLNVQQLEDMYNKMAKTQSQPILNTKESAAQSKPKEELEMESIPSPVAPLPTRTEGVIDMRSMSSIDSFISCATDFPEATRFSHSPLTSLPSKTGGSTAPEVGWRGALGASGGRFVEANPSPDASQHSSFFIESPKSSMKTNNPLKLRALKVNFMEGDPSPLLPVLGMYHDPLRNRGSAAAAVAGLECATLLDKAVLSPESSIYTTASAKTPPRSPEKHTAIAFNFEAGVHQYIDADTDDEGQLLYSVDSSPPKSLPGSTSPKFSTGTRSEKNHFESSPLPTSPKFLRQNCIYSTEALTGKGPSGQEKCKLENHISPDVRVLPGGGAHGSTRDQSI
Summary of the method: as §1

[15] = molecular target: T12, Cav2.2 (Homo sapiens, UniProt Q00975); assay: cell-based; conditions: 100% = no change, <100% = inhibition
T12 construct: host or cells: HEK293 or CHO
Summary of the method: as §1

[16] = molecular target: T13, Cav2.1 (Homo sapiens, UniProt O00555); assay: cell-based; conditions: 100% = no change, <100% = inhibition
T13 construct: host or cells: HEK293 or CHO
Summary of the method: as §1

[17] = molecular target: T14, Nav1.7 (Homo sapiens, UniProt Q15858); assay: cell-based; assay type: cell-based; conditions: 100% = no change; for Activity of Nav1.7 with peptide, expressed as a percentage of the reference compound: peptide at 0.2 μM; for Activity of Nav1.7 with peptide (percentage of the reference compound): peptide at 20 μM
T14 construct: host or cells: HEK293 or CHO
T14 sequence (Q15858 whole entry): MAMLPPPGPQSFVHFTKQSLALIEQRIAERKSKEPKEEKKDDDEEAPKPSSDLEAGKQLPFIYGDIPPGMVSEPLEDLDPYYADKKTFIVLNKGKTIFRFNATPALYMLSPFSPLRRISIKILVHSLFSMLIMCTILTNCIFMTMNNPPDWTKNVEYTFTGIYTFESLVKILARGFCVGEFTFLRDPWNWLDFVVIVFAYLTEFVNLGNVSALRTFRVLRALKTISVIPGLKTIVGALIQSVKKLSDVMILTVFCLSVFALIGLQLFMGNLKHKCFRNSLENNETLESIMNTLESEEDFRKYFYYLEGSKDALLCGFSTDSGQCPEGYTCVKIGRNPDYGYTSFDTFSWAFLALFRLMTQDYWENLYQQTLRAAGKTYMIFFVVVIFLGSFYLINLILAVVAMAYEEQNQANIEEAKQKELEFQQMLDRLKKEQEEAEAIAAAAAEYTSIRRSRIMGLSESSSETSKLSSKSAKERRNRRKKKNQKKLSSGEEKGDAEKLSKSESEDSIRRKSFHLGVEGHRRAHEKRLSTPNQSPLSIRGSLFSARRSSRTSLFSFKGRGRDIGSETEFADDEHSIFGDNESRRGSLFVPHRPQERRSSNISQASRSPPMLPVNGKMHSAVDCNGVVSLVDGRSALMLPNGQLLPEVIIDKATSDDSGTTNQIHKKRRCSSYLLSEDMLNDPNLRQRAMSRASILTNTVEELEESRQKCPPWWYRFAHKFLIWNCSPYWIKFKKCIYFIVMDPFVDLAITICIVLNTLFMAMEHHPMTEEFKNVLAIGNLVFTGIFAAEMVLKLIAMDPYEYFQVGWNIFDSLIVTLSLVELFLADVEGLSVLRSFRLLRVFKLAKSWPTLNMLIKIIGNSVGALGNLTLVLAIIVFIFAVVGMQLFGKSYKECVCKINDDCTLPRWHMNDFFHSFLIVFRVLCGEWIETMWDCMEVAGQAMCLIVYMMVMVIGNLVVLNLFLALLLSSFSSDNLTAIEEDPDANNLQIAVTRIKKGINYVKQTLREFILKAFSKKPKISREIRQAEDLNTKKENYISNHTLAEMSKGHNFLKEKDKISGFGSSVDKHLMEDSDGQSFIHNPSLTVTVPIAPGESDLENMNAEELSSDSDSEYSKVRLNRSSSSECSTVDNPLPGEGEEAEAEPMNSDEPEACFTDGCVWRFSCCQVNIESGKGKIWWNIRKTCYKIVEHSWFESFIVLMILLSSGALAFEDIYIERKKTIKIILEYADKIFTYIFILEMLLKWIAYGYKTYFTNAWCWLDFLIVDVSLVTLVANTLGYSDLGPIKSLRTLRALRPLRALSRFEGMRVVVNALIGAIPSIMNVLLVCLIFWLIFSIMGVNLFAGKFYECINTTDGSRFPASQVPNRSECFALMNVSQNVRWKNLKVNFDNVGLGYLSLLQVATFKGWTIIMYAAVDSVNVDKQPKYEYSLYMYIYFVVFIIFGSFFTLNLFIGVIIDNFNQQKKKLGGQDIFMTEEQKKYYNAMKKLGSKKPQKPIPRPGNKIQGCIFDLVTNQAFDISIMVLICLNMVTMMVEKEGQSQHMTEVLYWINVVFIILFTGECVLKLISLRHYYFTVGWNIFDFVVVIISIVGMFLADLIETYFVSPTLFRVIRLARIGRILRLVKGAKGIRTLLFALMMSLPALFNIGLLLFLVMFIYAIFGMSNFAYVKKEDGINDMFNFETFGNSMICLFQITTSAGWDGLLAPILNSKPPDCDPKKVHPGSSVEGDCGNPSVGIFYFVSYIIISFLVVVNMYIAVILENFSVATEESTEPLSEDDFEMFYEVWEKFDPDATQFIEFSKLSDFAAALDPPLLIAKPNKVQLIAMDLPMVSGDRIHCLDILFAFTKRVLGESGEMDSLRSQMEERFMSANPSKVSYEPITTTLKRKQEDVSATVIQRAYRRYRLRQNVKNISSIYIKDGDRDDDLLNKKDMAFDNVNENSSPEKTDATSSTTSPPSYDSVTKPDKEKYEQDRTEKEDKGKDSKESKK

[18] = molecular target: T15, NR2B (Homo sapiens, UniProt Q13224); assay: Ion channel panel (IonWorks Barracuda): NR2B; assay type: cell-based; conditions: 100% = no change, <100% = inhibition
T15 construct: host or cells: HEK293 or CHO
Summary of the method: as §1

[19] = first of two Nav1.5 columns (probably TP1)
[20] = second of two Nav1.5 columns (probably TP2)
[21] = first of two Nav1.7 columns (probably TP1)
[22] = second of two Nav1.7 columns (probably TP2)

## 22 (GSSDYCSNDFCFFSCRRDRCARGDCENGKCVCKNCHLN) [compound 22]
[1]; peptide at 0.2 μM
  Activity of NR2A with peptide, expressed as a percentage of the reference compound: 107%
[1]; peptide at 20 μM
  Activity of NR2A with peptide (percentage of the reference compound): 129%
[2]; peptide at 0.2 μM
  Activity of a4b2 with peptide, expressed as a percentage of the reference compound: 92%
[2]; peptide at 20 μM
  Activity of a4b2 with peptide (percentage of the reference compound): 83%
[3]
  Activity of 5HT3a with peptide (percentage of the reference compound): 95%
  Activity of 5HT3a with peptide, expressed as a percentage of the reference compound: 77%
[4]; peptide at 0.2 μM
  Activity of GABA with peptide, expressed as a percentage of the reference compound: 99%
[4]; peptide at 20 μM
  Activity of GABA with peptide (percentage of the reference compound): 124%
[5]; peptide at 0.2 μM
  Activity of hERG with peptide, expressed as a percentage of the reference compound: 84%
[5]; peptide at 20 μM
  Activity of hERG with peptide (percentage of the reference compound): 79%
[6]; [19]
  Activity of Nav1.5 with peptide, expressed as a percentage of the reference compound: 90%
  Activity of Nav1.5 with peptide (percentage of the reference compound): 112%
[6]; [20]
  Activity of Nav1.5 with peptide, expressed as a percentage of the reference compound: 90%
  Activity of Nav1.5 with peptide (percentage of the reference compound): 116%
[7]; peptide at 0.2 μM
  Activity of Kir2.1 with peptide, expressed as a percentage of the reference compound: 94%
[7]; peptide at 20 μM
  Activity of Kir2.1 with peptide (percentage of the reference compound): 97%
[8]; peptide at 0.2 μM
  Activity of Kv1.3 with peptide, expressed as a percentage of the reference compound: 100%
[8]; peptide at 20 μM
  Activity of Kv1.3 with peptide (percentage of the reference compound): 51%
[9]; peptide at 0.2 μM
  Activity of Kv1.1 with peptide, expressed as a percentage of the reference compound: 83%
[9]; peptide at 20 μM
  Activity of Kv1.1 with peptide (percentage of the reference compound): 97%
[10]; peptide at 0.2 μM
  Activity of Kv1.2 with peptide, expressed as a percentage of the reference compound: 82%
[10]; peptide at 20 μM
  Activity of Kv1.2 with peptide (percentage of the reference compound): 34%
[11]; peptide at 0.2 μM
  Activity of TRPA1 with peptide, expressed as a percentage of the reference compound: 90%
[11]; peptide at 20 μM
  Activity of TRPA1 with peptide (percentage of the reference compound): 128%
[12]; peptide at 0.2 μM
  Activity of a3b4 with peptide, expressed as a percentage of the reference compound: 98%
[12]; peptide at 20 μM
  Activity of a3b4 with peptide (percentage of the reference compound): 92%
[13]; peptide at 0.2 μM
  Activity of TRPV1 with peptide, expressed as a percentage of the reference compound: 102%
[13]; peptide at 20 μM
  Activity of TRPV1 with peptide (percentage of the reference compound): 67%
[14]; peptide at 0.2 μM
  Activity of Kv2.1 with peptide, expressed as a percentage of the reference compound: 110%
[14]; peptide at 20 μM
  Activity of Kv2.1 with peptide (percentage of the reference compound): 93%
[15]; peptide at 0.2 μM
  Activity of Cav2.2 with peptide, expressed as a percentage of the reference compound: 130%
[15]; peptide at 20 μM
  Activity of Cav2.2 with peptide (percentage of the reference compound): 86%
[16]; peptide at 0.2 μM
  Activity of Cav2.1 with peptide, expressed as a percentage of the reference compound: 98%
[16]; peptide at 20 μM
  Activity of Cav2.1 with peptide (percentage of the reference compound): 99%
[17]; [21]
  Activity of Nav1.7 with peptide, expressed as a percentage of the reference compound: 79%
  Activity of Nav1.7 with peptide (percentage of the reference compound): 94%
[17]; [22]
  Activity of Nav1.7 with peptide, expressed as a percentage of the reference compound: 81%
  Activity of Nav1.7 with peptide (percentage of the reference compound): 87%
[18]; peptide at 0.2 μM
  Activity of NR2B with peptide, expressed as a percentage of the reference compound: 94%
[18]; peptide at 20 μM
  Activity of NR2B with peptide (percentage of the reference compound): 97%
